Experimental data as given in PMC7914648 (Pharmaceuticals, 2021).
“And” between values parts separate entries of the source, which are not always exact repeats. Equal values may be shown once.

Legend:
[1] = set-up: method as in 4 sources, ref 50, 59 = [50]; PMID 12697897; doi:10.1073/pnas.0931245100; 50. Smith R.A.J. Porteous C.M. Gane A.M. Murphy M.P. Delivery of bioactive molecules to mitochondria in vivo Proc. Natl. Acad. Sci. USA 2003 100 5407 5412 10.1073/pnas.0931245100 12697897 PMC154358 || [59]; PMID 23454352; doi:10.1016/j.bbagen.2013.02.005; 59. Porteous C.M. Menon D.K. Aigbirhio F.I. Smith R.A. Murphy M.P. P-glycoprotein (Mdr1a/1b) and breast cancer resistance protein (Bcrp) decrease the uptake of hydrophobic alkyl triphenylphosphonium c ||| ref 59 = [59]; PMID 23454352; doi:10.1016/j.bbagen.2013.02.005; 59. Porteous C.M. Menon D.K. Aigbirhio F.I. Smith R.A. Murphy M.P. P-glycoprotein (Mdr1a/1b) and breast cancer resistance protein (Bcrp) decrease the uptake of hydrophobic alkyl triphenylphosphonium c ||| ref 50 = [50]; PMID 12697897; doi:10.1073/pnas.0931245100; 50. Smith R.A.J. Porteous C.M. Gane A.M. Murphy M.P. Delivery of bioactive molecules to mitochondria in vivo Proc. Natl. Acad. Sci. USA 2003 100 5407 5412 10.1073/pnas.0931245100 12697897 PMC154358 ||| ref 60 = [60]; PMID 31751762; doi:10.1016/j.freeradbiomed.2019.11.021; 60. Pinho B.R. Duarte A.I. Canas P.M. Moreira P.I. Murphy M.P. Oliveira J.M.A. The interplay between redox signalling and proteostasis in neurodegeneration: In vivo effects of a mitochondria-targeted; conditions: cited from earlier work
Source text: TPP-driven mitochondriotropic compounds are not necessarily excluded from the brain [47, 48, 49, 50]. The literature contains several reports of the use of mitochondria-targeted probes to report on cerebral processes or of mitochondria-tar ...

[2] = Tissue distribution of An2-PAPTP and metabolites (liver, spleen, kidneys, heart) after i.v. injection; type: in vivo, mouse; conditions: for metabolite in liver, 15 min: n = 5; for metabolite in heart, 15 min / metabolite in spleen, 15 min: N = 5; for metabolite in kidneys, 15 min, single animal: found in one animal out of five; for metabolite in liver, 30 min: n = 4; for metabolite in liver, 60 min: n = 6
Source text: The total amount of An2-PAPTP and its metabolites, summarized in Table 3, is comprehensive of all the species having the characteristic psoralenic UV spectrum obtained by the overall extraction procedure (i.e., from organic solvent extraction and basic hydrolysis of the remaining pellet), and represents and underestimation of the real concentration in the tissue (see Section 4.7.3). This is because no recovery yield correction was applied, since it was impossible to identify most of the species extracted, and because PAPTPL extracted after high-pH hydrolysis of the pellet could come either from An2-PAPTP or from metabolites. For quantification in HPLC analysis, all the psoralenic species were assumed to have the same molar extinction coefficient as PAPTPL, an assumption justified by the near-identity observed for all the available psoralen-containing molecules.
(§1) The liver, spleen, kidneys, heart obtained from untreated mice were weighed and homogenized with PBS pH 7.4 (1 vol) with a potter. The pre-established amount of PAPTPL was added into tissue homogenates or blood and, after thorough vortexing, 5 vol of acetone were added and the sample was sonicated for 2 min. Subsequently, 5 vol of ACN containing 0.1% TFA were added and the sample was sonicated for 5 min. The sample was then centrifuged at 12,000× g for 7 min at 4 °C and the supernatant was collected, concentrated with a Hetovac VR-1, and analyzed via HPLC-UV.
as §1, with “Brain and liver” for “The liver, spleen, kidneys, heart”, “analyte” for “PAPTPL”, “homogenates” for “homogenates or blood”, “trifluoracetic acid (TFA)” for “TFA”
To quantify the amount of An2-PAPTP stuck in the tissue, the pellet remaining after the procedure described above was incubated with intermittent Vortexing at 60 °C for 3 h with PBS pH 12.5/ACN 1:1 and then centrifuged at 12,000× g for 7 min. HPLC-UV analysis of the supernatant, measuring PAPTPL hydrolyzed from the tissue, thus indirectly reflects the amount of An2-PAPTPL in the pellet (Scheme 3). Quantification was as described for PAPTPL.
A stock solution of the peptide-PAPTP conjugates was prepared in DMSO. TAT-PAPTP was administered at 8 and 5 μmol/kg bw and An2-PAPTP only at 5 μmol/kg bw. The calculated quantity of drugs was diluted from the stock solution in saline or mouse plasma to a final volume of 200 μL.

[3] = fresh mouse blood, withdrawn from the jugular vein and heparinized; conditions: C57BL mice, 37 °C, up to 4 h
[4] = after An2-PAPTP 5 µmoles/kg bw i.v., mean ± SEM
[5] = after An2-PAPTP 5 µmoles/kg bw i.v., liver, mean ± SEM
[6] = after An2-PAPTP i.v., mean ± SEM
[7] = after An2-PAPTP i.v., kidneys, found in one animal out of four
[8] = after An2-PAPTP 5 µmoles/kg bw i.v., liver, 30 min, mean ± SEM
[9] = after An2-PAPTP i.v., mean ± SEM, N = 4
[10] = after An2-PAPTP i.v., mean ± SEM, N = 6

Row | Molecule | metabolite in heart, 15 min [2, 4] [nmol/g fresh tissue] | metabolite in liver, 15 min [2, 5] [% administered dose] | metabolite in heart, 15 min [2, 6] [% administered dose] | metabolite in kidneys, 15 min, single animal ([2]; after An2-PAPTP i.v., kidneys) | metabolite in kidneys, 30 min, single animal [2, 7] | metabolite in spleen, 15 min [2, 6] [% administered dose] | metabolite in liver, 30 min [2, 8] [% administered dose] | metabolite in liver, 60 min [2, 5] [% administered dose] | metabolite in heart, 30 min [2, 9] [% administered dose] | metabolite in spleen, 30 min [2, 9] [% administered dose] | metabolite in spleen, 60 min [2, 10] [% administered dose] | other results
1 | COC1=C(OC)C(=O)C(CCCCCCCCCC[P+](c2ccccc2)(c2ccccc2)c2ccccc2)=C(C)C1=O [MitoQ] | – | – | – | – | – | – | – | – | – | – | – | amount in the brain, R6/2 mice ([1]; 500 µM MitoQ in drinking water for 6 weeks, R6/2 mice): ~5 pmol/g; amount in the brain, WT mice ([1]; 500 µM MitoQ in drinking water for 6 weeks, WT mice): about 1 pmol/g; steady-state brain radioactivity levels ([1]; 10-day administration of 500 µM in drinking water): ~0.15 nmol/gr fresh tissue; initial peak concentration in brain tissue ([1]; i.v. injection of 100 nmol radiolabelled compound in (WT) mice, scintillation counting): about 0.05 nmol/gr; Area Under Curve in brain ([1]; i.v., wild-type mice): 0.6 nmol·h/g wet weight
2 | CCC(C)C(NC(=O)Oc1ccc(CCCOc2ccc([P+](CCCc3ccc(OCCCCOc4c5ccoc5cc5oc(=O)ccc45)cc3)(c3ccccc3)c3ccccc3)cc2)cc1)C(=O)O.O=C([O-])C(F)(F)F (stereo not drawn) [PAPTPL-I, (4-(3-(4-(((1-carboxy-2-methylbutyl)carbamoyl)oxy)phenyl)propoxy)phenyl) (3-(4-(4-((7-oxo-7H-furo[3,2-g]chromen-4-yl)oxy)butoxy)phenyl)propyl)diphenylphosphonium 2,2,2-trifluoroacetate] | 0 | 0.4 ± 0.2 | 0 | 0.32 nmol/g fresh tissue and 0.02 % administered dose | 0.32 nmol/g fresh tissue and 0.03 % administered dose | 0.04 ± 0.02 | – | – | – | – | – | metabolite in liver, 15 min ([2]; after An2-PAPTP 5 µmoles/kg bw i.v. in mouse plasma, liver, HPLC-UV, mean ± SEM): 0.5 ± 0.3 nmol/g fresh tissue; metabolite in spleen, 15 min [2, 4]: 0.7 ± 0.3 nmol/g fresh tissue; metabolite in liver, 30 min, single animal ([2]; after An2-PAPTP i.v., liver, 30 min, found in one animal out of four): 0.2 nmol/g fresh tissue and 0.03 % administered dose
3 | CC[C@H](C)[C@H](NC(=O)Oc1ccc(CCCOc2ccc([P+](CCCc3ccc(OCCCCOc4c5ccoc5cc5oc(=O)ccc45)cc3)(c3ccccc3)c3ccccc3)cc2)cc1)C(=O)N[C@H](C(=O)O)[C@@H](C)O [PAPTPL-IT, PAPTPL-isoleucine- threonine] | 0 | 2.8 ± 1.0 | 0 | 0.04 % administered dose | 0.05 % administered dose | 0.10 ± 0.04 | 2.7 ± 1.8 | 6.2 ± 1.6 | 0.01 ± 0.01 | 0.07 ± 0.04 | 0.07 ± 0.03 | metabolite in kidneys, 60 min, single animal ([2]; after An2-PAPTP i.v., kidneys, found in one animal out of six): 0.006 % administered dose
4 | CC[C@H](C)[C@H](NC(=O)Oc1ccc(CCCOc2ccc([P+](CCCc3ccc(OCCCCOc4c5ccoc5cc5oc(=O)ccc45)cc3)(c3ccccc3)c3ccccc3)cc2)cc1)C(=O)N[C@H](C(=O)N[C@@H](Cc1ccccc1)C(=O)O)[C@@H](C)O [PAPTPL-ITF, PAPTPL-isoleucine-threonine-phenylalanine] | 0 | 1.7 ± 1.0 | 0 | 0.01 % administered dose | – | 0.13 ± 0.08 | 1.2 ± 0.5 | 3.9 ± 1.0 | 0.008 ± 0.007 | 0.02 ± 0.01 | 0.08 ± 0.01 | metabolite in kidneys, 30 min ([2]; after An2-PAPTP i.v., kidneys, mean ± SEM, N = 4): 0.12 ± 0.08 % administered dose; metabolite in kidneys, 60 min ([2]; after An2-PAPTP i.v., kidneys, mean ± SEM, N = 6): 0.02 ± 0.01 % administered dose
5 | HN-IGRKKRRQRRRPPQG-OH | – | – | – | – | – | – | – | – | – | – | – | cleaved bond [3]: hydrolysis of the carbamate bond connecting the peptide and PAPTPL
